Paper PMC7329128

How the values were obtained:
Experiment in all cases: flow cytometry on cells
[1] = biological target: membrane-anchored HCMV trimer (full-length gH, gL-FLAG, gO-8his), strain Merlin, on Expi293F cells, Q6SW67;F5HCH8; conditions: read at 100 nM soluble PDGFR-Fc (highest concentration); parent: est. 0.98; read off a plot
[2] = biological target: membrane-anchored HCMV trimer (full-length gH, gL-FLAG, gO-8his), strain TB40/E, on Expi293F cells; conditions: fitted curve read at 100 nM soluble PDGFR-Fc (right end of the x axis); parent: est. 1.2; read off a plot
[3] = biological target: soluble HCMV glycoprotein trimer gH/gL/gO-sfGFP, strain TB40/E; conditions: 1/3 dilution of medium containing gH/gL/gO-sfGFP, read off a plot
[4] = + 100 nM PDGF competitor, parent: est. 0.33
[5] = w/o competitor, parent: est. 1.0

Row | Substance | ratio to parent [1] | ratio to parent [2] | ratio to parent [3, 4] | ratio to parent [3, 5]
1 | soluble PDGFRα-Fc (wild type, redesigned fusion to human IgG1 Fc) (from UniProt P16234-1) Y206S | 0.45 | 0.76 |  | 
2 | myc-tagged human PDGFRα (wild type) on Expi293F cells (from UniProt P16234-1) L137Q |  |  | 0.71 | 0.9
3 | myc-tagged human PDGFRα (wild type) on Expi293F cells (from UniProt P16234-1) L137K |  |  | 0.85 | 0.82
4 | soluble PDGFRα-Fc (wild type, redesigned fusion to human IgG1 Fc) (from UniProt P16234-1) V242K | 1 | 1.1 |  | 
5 | myc-tagged human PDGFRα (wild type) on Expi293F cells (from UniProt P16234-1) V242K |  |  | 0.94 | 0.9
6 | myc-tagged human PDGFRα (wild type) on Expi293F cells (from UniProt P16234-1) V242T |  |  | 0.84 | 0.83
7 | myc-tagged human PDGFRα (wild type) on Expi293F cells (from UniProt P16234-1) Y206S |  |  | 0.82 | 0.85
